Measurements as given in the nanobody polyreactivity screen of Harvey et al. (2022).

Test: yeast display, Sf9 membrane polyspecificity reagent, FACS + sequencing; frameworks hold sequencing errors
In short: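 Galactose induction of a Saccharomyces cerevisiae BJ5465 synthetic nanobody display library ran 36–48 hours. The cells were then stained for 1 hour at 4 °C with 10% biotinylated, detergent-solubilized Sf9 membrane reagent, pulled down on streptavidin microbeads and FACS-sorted into low and high (top ~1%) gates on expression and reagent-binding fluorescence. Labels for polyreactivity follow the gate of origin.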

Sequence | polyreactivity (PSR sort gate)
QVQLVESGGGLVQAGGSLRLSCAASGRTFGYNAMGWYRQAPGKERELVAAISWRSGGTYYADSVKGRFTISRDNANNSVYLQMISLKPEDTAVYYCARRSPHHGRDYWGQGTQVTVSS | low polyreactivity
QVQLVESGGGLVQAGGSLRLSCAASGRTFGYNAMGWYRQAPGKERELVAVIRSGGSTSYADSVKGRFTISRDNAKNTVYLQMNSLKPEDTAVYYCAATGLYNVTSPYSYKYDYWGQGTQVTVSS | low polyreactivity
QVQLVESGGGLVQAGGSLRLSCAASGRTFGYNAMGWYRQAPGKESELVAAINWSGASTYYADSVKGRFTISRDNAKNTVYLQMNSLKAEDTAVYYCAADYSYIYGFDYWGQGTQVTVSS | low polyreactivity
QVQLVESGGGLVQAGGSLRLSCAASGRTFGYNAMGWYRQAPVKERELVAAIRTIGDSTYYADSVKGRFTISRDNAKNTVYLQMNSLKPEDTAVFYCAARKLRSRYDYWGQGTQVTVSS | high polyreactivity
QVQLVESGGGLVQAGGSLRLSCAASGRTFGYNAMGWYSQAPGKERELVAAISYSGGRTYYADSVKGRFTISRDNAKNTVYLQMNSLKPEDTAVYYCAAKNPYKYDYWGQGTQVTVSS | high polyreactivity
QVQLVESGGGLVQAGGSLRLSCAASGRTFGYNVMGWYRQAPGKERELVADITSTSSTSYADSVKGRFTISRDNAKNTVYLQMNSLTPEDTAVYYCAAYYYFFRRYSWRLSGDYWGQGTQVTVSS | low polyreactivity
QVQLVESGGGLVQAGGSLRLSCAASGRTFGYYAMGWSRQAPGKERELVAAITYSGGRTRYADSVKGRFTISRDNAKNTVYLQMNSLKPEDTAVYYCNRVIPTQSLRDYYWGQGTQVTVSS | high polyreactivity
QVQLVESGGGLVQAGGSLRLSCAASGRTFGYYAMGWYRQAPGKERELVAAISWRGTSTYYADSVKGRFTISRDNAKNTVYLQMNSLKPEDTAVYYCNRYTTRYYPGGDYWGQGTQVTVSS | high polyreactivity
QVQLVESGGGLVQAGGSLRLSCAASGRTFGYYAMGWYRQAPGKERELVAAITRSGDRTYYADSVKGRFTISRDNAKNTVYLQLNSLKPEDTAVYYCARYAYLISDYWGQGTQVTVSS | high polyreactivity
QVQLVESGGGLVQAGGSLRLSCAASGRTFGYYAMGWYRQAPGKERELVAGIRSSGGSTYYADSVKGRFTISRDNAKNTVYLQMNSLKPEDTAVYYCAARLRSYHYRYGYDYWGQGTQVTVSS | high polyreactivity
QVQLVESGGGLVQAGGSLRLSCAASGRTFGYYAMVWYRQAPGKERELVAAISTSGGGTYYADSVKGRFTISRDNAKNTVYLQMNSLKPEDTAVYYCNRDSRVLEGDYWGQGTQVTVSS | low polyreactivity
QVQLVESGGGLVQAGGSLRLSCAASGRTFGYYTMGWYRQAPGKERELVAAISWNGDDTYYADSVKGRFTISRDNAKNTVYLQMNSLKPEDTAVYYCAKDFLGNYYWTDVYTYGGEGDYWGQGTQVTVSS | low polyreactivity
QVQLVESGGGLVQAGGSLRLSCAASGRTFHAYAMGGYRQARGKARELVATISTSGTSTYYADSVKGRFTISRDNAKNTVYLQMNSLKAEDTAVYYCGKGPRQDFYFSFEYWGQGTQVTVSS | high polyreactivity
QVQLVESGGGLVQAGGSLRLSCAASGRTFHDNAMGWYRQAPGKETELVAAISWRGGSTNYADSVKGRFTISRDNAKNTVYLQMNSLKPEDTAVYYCNRDPRKYGKLDYWGQVTQVTVSS | low polyreactivity
QVQLVESGGGLVQAGGSLRLSCAASGRTFHDYAMGWYRQAPGKERELVAAISISGVSTYYADSVKGRFTSSRDNAKNTVYLQMNSLKPVDTAVYYCAAAQDAAVYWRPGGYDYWGQGTQVTVSS | low polyreactivity
QVQLVESGGGLVQAGGSLRLSCAASGRTFHFYAMGWYRQAPGKERELVASITWSAVRTYYADSVKGRFTISRDNAKNTVYLQMNSLKQVDTAVYYCAKEWDYRLMDYWGQGTQVTVSS | low polyreactivity
QVQLVESGGGLVQAGGSLRLSCAASGRTFHGYAMGWYRQAPGKERELVAAINWRGGSTYYADSVKGRFTISRDNAKNTVYLQMNSLKPEDTAVYYCNKRQYSARVSRSYDYWGQGTQVTVSS | high polyreactivity
QVQLVESGGGLVQAGGSLRLSCAASGRTFHGYAMRWYRQAPGKDRELVAAITSSGARTYYADSVKGRFTISRDNAKNTVYLQMNSLKPEDTACYYCNAEYYSTWYRFDYWGQGTQVTVSS | high polyreactivity
QVQLVESGGGLVQAGGSLRLSCAASGRTFHSYAMGWYRQAPGKERELVAVITRRGGSTYYADSVKGRFTISRDNAKNTVYLQMNSLKPEDTAVYYCNKGKSYTYDYWGQGTQVTVSS | high polyreactivity
QVQLVESGGGLVQAGGSLRLSCAASGRTFHYNVMGWYRQAPGKERELVAAITNTGGSTYYADSVKGRFTISRDNAKNTVYLQIYSLKPEDTAVYYCAAVIWGRRYGAYPYEYWGQGTQVTVSS | low polyreactivity
QVQLVESGGGLVQAGGSLRLSCAASGRTFIAYAMGWYRQAPGKERELVAAITSSGGSTYYADSVKGRFTISRDNAKNTVYLQMNSLKPEDTAVYYCATDIYESPYFYYSYYYWGQGTQVTVSS | low polyreactivity
QVQLVESGGGLVQAGGSLRLSCAASGRTFIDYGMGWYRQAPGKERELVAAISSGGSTYYADSVKGRFTISRDNAKNTVYLQMNSLKPEDTAVYYCAAPGFKYDVYAGYVLNGGGDYWGQGTQVTVSS | low polyreactivity

Sequence | polyreactivity (PSR sort gate)
QVQLVESGGGLVQAGGSLRLSCAASGRTFIGNVMGWYRQAPGKERELVAAISKSGTRTYYPDSVKGRFTISRDNAKNTVYLQMNSLKPEYTAVYYCAKDHYPRTDDFGYWGQGTQVTVSS | high polyreactivity
QVQLVESGGGLVQAGGSLRLSCAASGRTFIGYAMGWYRQAPGKERELAAGISWSGGSTYYADSVKGRFTISRDNAKNTVYLQMNSLKPEDTAVYYCAARGRWSTEYGYWGQGTQVTVSS | low polyreactivity
QVQLVESGGGLVQAGGSLRLSCAASGRTFIGYAMGWYRQAPGKERELVAAISPGGSTKYADSVKGRFTISRDNAKNTVYLQMNSLKPEDTAVYYCAASYSGRQDRYPHYDYWGQGTQVTVSS | low polyreactivity
QVQLVESGGGLVQAGGSLRLSCAASGRTFIGYAMGWYRQAPGKERELVATISVSGGSTYYADSVKGRFTISRDNAKNTVYLQMNSLKPEDTAVYYCAKAYLRYYDGPYDYWGQGTQVTVSS | low polyreactivity
QVQLVESGGGLVQAGGSLRLSCAASGRTFIINTMGWYRQAPGTERQLVAAISKNGATTNYADSVKGRFTISRDNAKNTVYLQMNSLKPVDTAVYYCNARYSGYLRLDYWGQGTQVTVSS | low polyreactivity
QVQLVESGGGLVQAGGSLRLSCAASGRTFIKYAMGWYRQAPGKERELVAAISRNGGSTNYADSVKGRFTISRDNAKNTVYLHMNSLKPEDTAVYYCAAVGTVSRTVGYNYWGQGTQVTVSS | high polyreactivity
QVQLVESGGGLVQAGGSLRLSCAASGRTFIKYAMGWYRQAPGKERELVAAITYSAGSTSYADSVKGRFTISRDNAKNTVYLQMNRLKPEDTAVYYCARRTRSYGYRSDYYYWGQGTQVTVSS | low polyreactivity
QVQLVESGGGLVQAGGSLRLSCAASGRTFINYAMGWYRQAPGKERELVAAITTGGRTNYADSVKGRFTISRDNAKNTVYLQMNILKPEDTAVYYCAADRYYWGRYTLNYWGQGTLVTVSS | low polyreactivity
QVQLVESGGGLVQAGGSLRLSCAASGRTFIPYAMGCYRPAPGKERELVAAIRSGASTNYADSVKGRFTISRDNAKITVYLQMNSLNPEDTAVYYCNADFLGGTWFDYWGQGTQVTVSS | high polyreactivity
QVQLVESGGGLVQAGGSLRLSCAASGRTFIPYAMGWYRQAPGKVRELVAAIRNGGSTNYADSVKGRFTISRDNAKNTVYLQMNSLKPEATAVYYCNADLPVYVDYINGGYGYWGQGTQVTVSS | low polyreactivity
QVQLVESGGGLVQAGGSLRLSCAASGRTFIRYAMGWYRQAPGKERELVAAISWSGDRTYYADSVKGRFTISRDNAKNTVYLQMNSLKPEDTAVYYCNAYRYLRTATFLKFDYWGQGTQVTVSS | high polyreactivity
QVQLVESGGGLVQAGGSLRLSCAASGRTFIVYPMGWYRQAPGKERELVAAISKRGGSTYYADSVKGRFTISRDNAKNPVYLQMNRLKPDDTAVYYCNAALSVELGYAYWGQGTQVTVSS | high polyreactivity
QVQLVESGGGLVQAGGSLRLSCAASGRTFIYYAMGWYRPAPGKERELVAAITWTGGRTYYADSVKGRFTISRDNAKNTVYLQMNSLKPEDTAVYYWAASDRYGGRDYWGQGTQVTVSS | high polyreactivity
QVQLVESGGGLVQAGGSLRLSCAASGRTFIYYAMGWYRQAPGKERELVAGITYSVGSTYYADSVKGRFTISRDNEKNTVYLQMNSLKPEDTAVYFCAADATFESDWGQGTQVTVSS | low polyreactivity
QVQLVESGGGLVQAGGSLRLSCAASGRTFIYYAMGWYRQAPGKERELVAVITGGGSTNYADSVKGRFTISRDNAKNTVYLQMNSLKPEDTAVYYCNRDYDASHTSREPLVGYDYWGQGTQVTVSS | low polyreactivity
QVQLVESGGGLVQAGGSLRLSCAASGRTFIYYAMGWYRQAPRKERELVATIRGSSTRTYYADSVKGRFTISRDNAKNTVYLQMNSLKPEDTAVYYCAARGTSRKYYYWGQGTQVTVSA | high polyreactivity
QVQLVESGGGLVQAGGSLRLSCAASGRTFKHYAMGWYRQAPGKERELVAAITSGGSTYYADSVKGRFTISRDNAKNTVYLQMNSLKPEDTAVYYCNKESYFDTYRRYDSWGQGTQVTVSS | low polyreactivity
QVQLVESGGGLVQAGGSLRLSCAASGRTFKKKVMGWYRHAPGKERELFAAISNGGSTNYADSVKGRFTISRDNSKNTDYLQMNSLKPEDTAVYDCAAYITWGGYHTPNWGYDYWGQGTQVTVSS | low polyreactivity
QVQLVESGGGLVQAGGSLRLSCAASGRTFKKYAMGWYSQAPGKERELVAAITVSGGSTYYADSVKGRFTVSRDNAKNTVYLQMNSLKPEDTAVYYCAAGSYSRYLFSLYFDFDYWGQGNQVTVSS | low polyreactivity
QVQLVESGGGLVQAGGSLRLSCAASGRTFKLYAMGWYRQAPGKERELVAAISRSGGSTYYADSVKGRFTISRDNAKNTVYLQMNSLKPEDTAVYYCNRRQGYHGDYDYWGQGTQVTVSS | high polyreactivity
QVQLVESGGGLVQAGGSLRLSCAASGRTFKNYAMGWYRQSPGKERELVAVISRRGSSTYYADSVKGRFTISRDNAKNTVYLQMNSLKPEDTAVYYSAARLGVPYPYIAYDYWGQGTQVTVSS | high polyreactivity
